# Data from patent US8299028B2, “Chimeric peptide antagonist for GPCR135 or GPCR142” (Janssen Pharmaceutica NV, priority 2007, dated 2012).
# Molecular target: human GPCR142 (Homo sapiens, UniProt Q8TDU9)
# Experiment: Agonist assay, inhibition of forskolin-induced β-gal expression in SK-N-MC/CRE-β-gal cells
# Format: cell-based
# Parameters: expressed in transfected cells
# Conditions: human GPCR142 agonist response, mean ± SEM; NA = no agonist activity observed
# Procedure: FIG. 1 provides a characterization of mutant relaxin-3 peptides as ligands for human GPCR135, GPCR142, and LGR7. The truncated peptides were tested for their GPCR135 and GPCR142 agonist activity using SK-N-MC/CRE-β-gal cells expressing either human GPCR135 (A) or GPCR142 (B). Agonists for GPCR135 or GPCR142 inhibit forskolin induced β-galactosidase (β-gal) expression. The LGR7 agonist activity of the truncated peptides was tested using SK-N-MC/CRE-β-gal cells expressing Gαs-linked human LGR7 (C). Human relaxin-3 was used as positive control in both cases. β-gal expression was measured by colorimetric assay using CPRG as the substrate and reading the absorbance at 570 nm.
# All peptides were tested for their GPCR135, GPCR142, and LGR7 agonist activities in SK-N-MC/CRE cells expressing the relevant receptors as described by Liu et al., 2005b. […] An increase in cAMP concentration in these cells is associated with increased β-gal expression, which can be measured using Chlorophenol Red-β-D-Galactopyranoside (CRGP) as a substrate and reading the optical absorbance at 570 nm. […] The results were analyzed using GraphPad Prism 4.0 software. […] The agonism and antagonism of peptides for rat LGR7 was assayed using a cAMP luminescence assay. […] The cAMP in the cells was measured with a cAMP detection kit (DiscoveRx HitHunter, Cat. #90-0041) according to the manufacturer's protocol. […]
# Chain of human GPCR142 (Q8TDU9 whole entry): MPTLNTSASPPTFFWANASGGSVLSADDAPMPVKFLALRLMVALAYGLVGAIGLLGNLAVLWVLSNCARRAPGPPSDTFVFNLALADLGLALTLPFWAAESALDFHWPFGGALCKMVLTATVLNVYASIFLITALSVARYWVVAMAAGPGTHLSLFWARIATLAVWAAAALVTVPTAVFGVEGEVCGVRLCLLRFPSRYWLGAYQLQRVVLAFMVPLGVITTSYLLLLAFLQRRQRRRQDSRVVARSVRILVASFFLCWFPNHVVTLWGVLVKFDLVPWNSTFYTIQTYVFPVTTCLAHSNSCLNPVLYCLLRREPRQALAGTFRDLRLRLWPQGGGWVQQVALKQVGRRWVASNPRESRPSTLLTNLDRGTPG
substance,measurement,value
"R3(BΔ23-27)R: Relaxin-3 mutant: B-chain SEQ ID NO:15 (Gly23-Trp27 deleted plus C-terminal Arg), relaxin-3 A-chain SEQ ID NO:13",EC50,> 1000 nM
